Positions count from the first letter of the chain named. One block for each molecule: values may come before it.
Legend:
[1] = target: T1, hCCR8 (Homo sapiens, UniProt P51685); assay: Flow cytometry binding of purified VHHs to HEK293 cells expressing hCCR8; details: monovalent VHH, FIG. 1
T1 construct: expressed in transfected cells
Procedure: Recombinant cells expressing hCCR8 were resuspended to a final concentration of 1.0×10^6 cells/ml in FACS buffer. Surface expression of hCCR8 on transiently transfected HEK293 cells was confirmed by flow cytometry of HEK293 cells stained with PE anti-hCCR8 (Clone 433H, BD Biosciences, #566897) antibody. Dilutions of purified VHHs were incubated with cells for 60 min. Individual samples were distributed into 96-well v-bottom plates and incubated for one hour at 4° C. Bound VHH were then detected with an anti-VHH specific antibody (Goat anti-alpaca VHH, Jackson ImmunoResearch, #128-605-232). […] Binding was determined in parallel on HEK293 cells stably expressing the closely related receptor hCCR7 (SEQ ID NO: 41), as control for binding specificity.

[2] = target: T2, HuT-78 cells that naturally express human CCR8 (Homo sapiens, UniProt P51685); assay: Flow cytometry binding of yeast-display optimized VHH-Fc antibodies to HuT-78 cells; details: Table 13; for EC50: clones tested as VHH-Fc fusions (human IgG1 Fc), HuT-78 cells; for Normalized Bmax (%): normalized to VHH-1 or VHH-2 depending on clone family
T2 construct: HuT-78 cells that naturally express human CCR8 were used as target cells; endogenous in cells; host or cells: HuT-78
T2 sequence (P51685 whole entry, the tested form may be a part): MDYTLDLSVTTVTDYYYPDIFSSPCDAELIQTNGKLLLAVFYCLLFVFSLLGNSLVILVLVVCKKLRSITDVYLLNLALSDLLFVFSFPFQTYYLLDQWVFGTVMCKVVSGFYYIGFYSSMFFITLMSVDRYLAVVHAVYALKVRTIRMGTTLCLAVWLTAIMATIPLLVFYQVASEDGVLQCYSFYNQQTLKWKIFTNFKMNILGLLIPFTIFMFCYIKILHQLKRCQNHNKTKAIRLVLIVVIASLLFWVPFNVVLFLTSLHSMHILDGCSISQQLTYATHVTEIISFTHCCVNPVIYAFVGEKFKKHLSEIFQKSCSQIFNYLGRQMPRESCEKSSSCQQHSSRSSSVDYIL
From the text: Top VHH sequences were chosen from the FACS sorted populations based on an analysis of improved binding performance relative to the parental sequences and evidence of sequence enrichment by NGS. Candidate VHH were then cloned as VHH-Fc fusions to the short hinge of the IgG1 Fc domain (SEQ ID NO: 34), expressed in HEK293 cells as described earlier and purified for binding evaluation. Bmax values are shown as normalized to VHH-1 or VHH-2 depending on the clone family. […] Mutations are referenced by position according to the IMGT definition.

[3] = target: T1, hCCR8; assay: Flow cytometry binding of VHH-Fc fusion antibodies to hCCR8 on stably transfected HEK293 cells; details: for EC50: HEK293 hCCR8
Procedure: VHH-Fc fusion antibodies were evaluated for their ability to bind to hCCR8 on stably transfected HEK293 cells by means of flow cytometry. Cells were incubated with different concentrations of the bivalent VHH-Fc fusions for 60 minutes at 4° C., followed by two washes with FACS buffer, followed by 30 minutes incubation at 4° C. with the Zenon R-Phycoerythrin Anti-human IgG (ThermoFisher Scientific, #Z-25455), and two additional washing steps. Data were plotted and fit using GraphPad Prism software. EC50 and Bmax values individual antibodies were calculated from the resulting dose-response curves. Bivalent VHH-Fc fusions (Seq ID NOs: 31, 33, and 87-103) of 19 different VHH domains (SEQ ID NOs: 27, 28, and 70-86) were tested for cell binding and results are shown in Table 7. […]
(§1) VHH-Fc fusion DNA constructs were then generated comprising encoding humanized VHH sequences (SEQ ID NOs: 106-111) fused in frame to the human IgG1 (SEQ ID NO: 34) directly to the short hinge sequence in the pFuse expression vector, and were expressed, purified and analyzed for binding to HEK293 cells expressing human CCR8 as in Example 5. Binding curves for VHH-Fc antibodies comprised of parental VHH-1 and the humanized VHH derivatives VHH-1.2-Fc and VHH-1.3-Fc are shown in FIG. 9A. Binding curves for VHH-Fc antibodies comprised of parental VHH-2 and the humanized VHH derivatives VHH-2-Fc, VHH-2.2-Fc and VHH-2.3-Fc, are shown in FIG. 9B. Cell binding EC50 values, normalized Bmax (relative to respective parental clone) data and humanizing mutations are shown in Table 10 below.
Approaches such as in vitro affinity maturation and rational mutagenesis can be performed to regain binding affinity and/or stability lost through humanization. In vitro affinity maturation generally involves building and amino acid substitution library where amino acid positions are varied across the CDRs and/or framework at a defined set of positions using sets of amino acids chosen to introduce new chemical diversity. The paratope residues within the CDR regions are of course key to antigen binding and care must be taken not to disrupt important structures while attempting to evolve improve antibody behavior. One approach to identify positions that are important to the maintenance of binding properties is to perform paratope mapping using single scanning alanine substitutions across antibody CDR regions. In this approach, residues that are critical to the maintenance of antibody binding to the antigen can be identified and at the same time permissive sites can be identified where it may be possible to make substitutions of other amino acids desirable for subsequent affinity maturation library construction. Site directed mutagenesis was used to make single alanine substitutions at each residue in the CDRs of VHH-1 (SEQ ID NO: 27) and VHH-2 (SEQ ID NO: 28). Changes in VHH-1 CDR amino acids to alanine are indicated in Table 11 (SEQ ID NOs: 112-137) and for VHH-2 CDRs (SEQ ID NO: 138-162) in Table 12. Mutation positions and residue changes to alanine with respect to the in the parental VHH sequences are referenced by their IMGT position. VHH domains containing the indicated modified CDR-1, CDR-2 or CDR-3 domains were used to construct Fc fusions by direct grafting to the short hinge of the human Fc domain (SEQ ID NO: 34). VHH-Fc constructs were expressed, purified and analyzed for binding to HEK293 cells expressing hCCR8 and the results are reported in Table 11 and Table 12. EC50 values are reported for each Fc fusion antibody containing a modified CDR, along with its respective Bmax value normalized to the to the matched wild type VHH-1-Fc or VHH-2-Fc fusion antibody.

[4] = system: MC38 mouse colon cancer cells; assay: MC38 tumor growth inhibition study in human CCR8 transgenic mice; assay type: in vivo; details: 30 mg/kg IV 3 times per week, Day 16, p=0.0169
Procedure: Human CCR8 transgenic (hCCR8-tg) mice (#110096, Biocytogen, China) were inoculated with MC38 mouse colon cancer cells subcutaneously. After the average tumor size reached approximately 150 mm3, mice were randomized based on tumor size and treatment was initiated. Mice were treated IV 3 times per week with 30 mg/kg VHH-1-mFc (SEQ ID NO: 239) or an IgG2a Fc control (recombinant IgG2a Fc, #BE0097, BioXcell). Tumor volume was measured twice per week using a caliper, and the volume expressed in mm3 using the formula: V (mm3)=(a×b2)/2 where a and b were the long and short diameters of the tumor, respectively. The tumor size was then used for calculations of tumor growth inhibition (T/C) values (where T was the treatment group and C is the control group). The T/C value (in percent) is an indication of antitumor effectiveness; T and C were the mean volume of the treated and control groups, respectively, on a given day. […] To determine whether group treated with various test articles had statistically significant anti-tumor effects compared to the mouse IgG2a Fc control, the MC38 tumor volumes were analyzed by one-way ANOVA and multiple comparison test at day 16. […] In addition, the tumor growth inhibition (TGI) was also calculated during the study until Day 16. On Day 16, the TGIs for VHH-1-mFc were 50.3%, (p=0.0169).

[5] = Production and purification of humanized VHH-Fc from cells; details: most humanized variants
From the text: as §1
Humanization within the framework regions of VHH and other antibodies is known to often have negative impacts of on protein properties such as destabilization of the VHH fold or loss of binding affinity. This is most common when humanized versions of antibodies are constructed by “CDR grafting”, where the individual CDRs are transferred directly to a fully human framework.

T1 sequence (P51685 whole entry): as the sequence (P51685 whole entry, the tested form may be a part) above

EC50 [2]: 2.56 nM
Normalized Bmax (%) [2]: 100.0%
EC50 ([3]; Table 11, VHH-1 CDR alanine mutants as human Fc fusions): 1.73 nM
% Bmax ([3]; Table 11, normalized to wild type VHH-1-Fc): 100%
B1: VHH-1: llama anti-hCCR8 VHH, SEQ ID NO: 27; in Tables 11 and 13 tested as human IgG1 Fc fusion (protein)
VHH: QVQLQESGGGLVQAGGSLRLSCVASGSTSSIRRIGWYRQAPGKQRELVARFSSGGGTNYADFVKGRFTISGDNAKNTMYLQMNSLKPEDTAVYYCSARRLLGTSRVDYWGQGTQVTVSSHHHHHH
modifications: left off: small tags and cut ends
binding specificity hCCR8 vs human CCR7 [1]: specific binding to hCCR8 overexpressed in HEK293 cells and not to human CCR7

B2: VHH-1-mFc: VHH-1 fused to hinge of mouse IgG2a Fc, SEQ ID NO: 239 (protein)
chain: QVQLQESGGGLVQAGGSLRLSCVASGSTSSIRRIGWYRQAPGKQRELVARFSSGGGTNYADFVKGRFTISGDNAKNTMYLQMNSLKPEDTAVYYCSARRLLGTSRVDYWGQGTQVTVSSEPRGPTIKPCPPCKCPAPNLLGGPSVFIFPPKIKDVLMISLSPIVTCVVVDVSEDDPDVQISWFVNNVEVHTAQTQTHREDYNSTLRVVSALPIQHQDWMSGKEFKCKVNNKDLPAPIERTISKPKGSVRAPQVYVLPPPEEEMTKKQVTLTCMVTDFMPEDIYVEWTNNGKTELNYKNTEPVLDSDGSYFMYSKLRVEKKNWVERNSYSCSVVHEGLHNHHTTKSFSRTPGK
fold smaller tumor volume than isotype control [4]: 1.8 fold
tumor growth inhibition (TGI) [4]: 50.3%

B3: VHH-1.1: humanized VHH-1, version 1, SEQ ID NO: 106 (protein)
VHH: EVQLVESGGGLVQPGGSLRLSCAASGSTSSIRRIGWVRQAPGKGLEWVSRFSSGGGTNYADSVKGRFTISRDNSKNTLYLQMNSLRAEDTAVYYCAKRRLLGTSRVDYWGQGTTVTVSS
stability / producibility after humanization [5]: could not be produced and purified from cells

EC50 [2]: 0.24 nM
Normalized Bmax (%) [2]: 100.0%
EC50 ([3]; Table 12, VHH-2 CDR alanine mutants as human Fc fusions): 1.3 nM
% Bmax ([3]; Table 12, normalized to wild type VHH-2-Fc): 100%
B4: VHH-2: llama anti-hCCR8 VHH, SEQ ID NO: 28; in Tables 12 and 13 tested as human IgG1 Fc fusion (protein)
VHH: QVQLQESGGGLVQAGGSLRLTCAVSGSTSTINRFAWYRQAPGKQRELVAATSSRTSPNYADSVKGRFRFSRDNARSAVYLQMDNLRPEDTAVYFCQARMAMGSSQVVYWGLGTQVTVSS

EC50 [2]: 1.19 nM
Normalized Bmax (%) [2]: 88.8%
B5: VHH-2.3: humanized VHH-2, version 3, SEQ ID NO: 111; Table 13 tested as Fc fusion (protein)
VHH: EVQLVESGGGLVQPGGSLRLSCAVSGSTSTINRFAWYRQAPGKGRELVAATSSRTSPNYADSVKGRFTFSRDNSKNTVYLQMNSLRAEDTAVYYCQARMAMGSSQVVYWGQGTTVTVSS
binding to hCCR8 expressed on HEK293 cells (in words) ([3]; as Fc fusion antibodies): maintained their hCCR8 binding properties

B6: VHH-2.1: humanized VHH-2, version 1, SEQ ID NO: 109 (protein)
VHH: B5 VHH with V24A, Y37V, R45L, L47W, A49S, F69I, V78L, Q96A, A97K
stability / producibility after humanization [5]: could not be produced and purified from cells

B7: VHH-3: llama anti-hCCR8 VHH, SEQ ID NO: 29 (protein)
VHH: QVQLQESGGGLVQAGGSLRLSCVASGSTSSIRRIGWYRQAPGKQRELVARFSSGGGTNYADFVKGRFTISGDNAKNTMYLQMNSLKPEDTAVYYCGARRLLGTSRVDYWGQGTQVTVSS
binding specificity hCCR8 vs human CCR7 [1]: specific binding to hCCR8 overexpressed in HEK293 cells and not to human CCR7

Source: patent publication US20250092146A1, “ANTI-CCR8 ANTIBODIES, CONJUGATES, AND USES THEREOF” (Abilita Bio, Inc., priority 2023, published 2025)
